Source: patent US20120087949, “OLIGONUCLEOTIDE MICELLES” (University of Florida Research Foundation, Inc., published 2012)

Tests used:
[1] = system: unidentified cell-surface target of sgc8 on CCRF-CEM cells; details: 5'-diacyl lipid-(PEG)4, membrane anchored; CITED; value for sgc8 aptamer; CEM cell aggregation with lipo-sgc8-TMR shown here (FIG. 13A); cited from earlier work
[2] = molecular target: T1, IGHM (immunoglobulin heavy mu chain), on Ramos cells (UniProt P01871 P01871:1-474); experiment: flow; Ramos cells; based on lipid unit concentration; 0.116 nM if 1000 copies per micelle; details: tags: endogenous on Ramos cells (ATCC CRL-1596); chain copies: 2; label: 3'-FAM
T1 sequence (P01871 whole entry, one chain of several): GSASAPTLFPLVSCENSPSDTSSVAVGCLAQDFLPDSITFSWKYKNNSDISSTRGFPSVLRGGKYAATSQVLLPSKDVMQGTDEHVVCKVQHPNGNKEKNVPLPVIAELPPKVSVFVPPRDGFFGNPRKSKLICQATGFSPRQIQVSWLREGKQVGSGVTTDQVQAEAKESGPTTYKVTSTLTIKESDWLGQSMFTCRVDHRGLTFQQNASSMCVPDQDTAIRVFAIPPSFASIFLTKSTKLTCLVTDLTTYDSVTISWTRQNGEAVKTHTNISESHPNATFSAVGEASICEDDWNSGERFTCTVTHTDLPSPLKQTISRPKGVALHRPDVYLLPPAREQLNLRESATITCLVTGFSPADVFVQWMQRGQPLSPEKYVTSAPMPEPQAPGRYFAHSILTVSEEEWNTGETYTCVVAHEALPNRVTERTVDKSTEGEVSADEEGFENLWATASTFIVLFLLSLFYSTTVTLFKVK

[3] = molecular target: T1, IGHM (immunoglobulin heavy mu chain), …; experiment: flow; free TDO5 on Ramos cells; compared with micelle; elsewhere quoted as 74 nM (p179, CITED); details: tags: endogenous on Ramos cells (ATCC CRL-1596); chain copies: 2; label: FITC

In the case of “TTTTTTTATCTAACTGCTGCGCCGCCGGGAAAATACTGTACGGTTAGA [Lipo-sgc8-TMR]”, the Kd [1] is given as 0.8 nM.

For AACACCGGGAGGATAGTTCGGTGGCTGTTCAGGGTCTCCTCCCGGTGA (ssDNA, 5'-diacyl lipid tail-(CH2CH2O)24; self-assembled micelle) [TDO5-micelle (lipid-TDO5)], the Kd [2] was 116 nM.

Molecule AACACCGGGAGGATAGTTCGGTGGCTGTTCAGGGTCTCCTCCCGGTGA (ssDNA) [TDO5] has a Kd [3] of 88 nM.
